# Assay: DTPA concentration optimization: radio-TLC purity
# Assay type: physicochemical
# Conditions: 20 μCi/ml, 100 mM sodium ascorbate pH 5.80, 25° C.
# Protocol: The mixture was kept at room temperature (25° C.). At different time points, radioactive components of the formulated dose were measured by radio-TLC as described in the table below: […]
substance,measurement,setting,value
"(2,2′,2″-(10-(2-4(R)-1-(((4R,7S,10S,13R,16S,19R)-13-((1H-indol-3-yl)methyl)-10-(4-aminobutyl)-4-(((1S,2R)-1-carboxy-2-hydroxypropyl)carbamoyl)-16-(4-hydroxybenzyl)-7-((R)-1-hydroxyethyl)-6,9,12,15,18-pentaoxo-1,2-dithia-5,8,11,14,17-pentaazacycloicosan-19-yl)amino)-1-oxo-3-phenylpropan-2-yl)amino)-2-oxoethyl)-1,4,7,10-tetraazacyclododecane-1,4,7-triyl)triacetate; actinium-225(3+)) [[^225Ac]Ac-DOTA-TATE]",Percentage of ^225Ac present in [^225Ac]Ac-DOTA-TATE,"DTPA 0.05 mg/ml, 0 hour",98.74%
same,Percentage of ^225Ac present in [^225Ac]Ac-DOTA-TATE,"DTPA 0.05 mg/ml, 24 hours",97.67%
same,Percentage of ^225Ac present in [^225Ac]Ac-DOTA-TATE,"DTPA 0.05 mg/ml, 48 hours",95.34%
same,Percentage of ^225Ac present in [^225Ac]Ac-DOTA-TATE,"DTPA 0.05 mg/ml, 72 hours",94.62%
same,Percentage of ^225Ac present in [^225Ac]Ac-DOTA-TATE,"DTPA 0.1 mg/ml, 0 hour",97.52%
same,Percentage of ^225Ac present in [^225Ac]Ac-DOTA-TATE,"DTPA 0.1 mg/ml, 24 hours",98.30%
same,Percentage of ^225Ac present in [^225Ac]Ac-DOTA-TATE,"DTPA 0.1 mg/ml, 48 hours",96.74%
same,Percentage of ^225Ac present in [^225Ac]Ac-DOTA-TATE,"DTPA 0.1 mg/ml, 72 hours",94.36%
same,Percentage of ^225Ac present in [^225Ac]Ac-DOTA-TATE,"DTPA 0.3 mg/ml, 0 hour",98.06%
same,Percentage of ^225Ac present in [^225Ac]Ac-DOTA-TATE,"DTPA 0.3 mg/ml, 24 hours",97.19%
same,Percentage of ^225Ac present in [^225Ac]Ac-DOTA-TATE,"DTPA 0.3 mg/ml, 48 hours",96.11%
same,Percentage of ^225Ac present in [^225Ac]Ac-DOTA-TATE,"DTPA 0.3 mg/ml, 72 hours",93.60%
same,Percentage of ^225Ac present in [^225Ac]Ac-DOTA-TATE,"DTPA 0.5 mg/ml, 0 hour",98.40%
same,Percentage of ^225Ac present in [^225Ac]Ac-DOTA-TATE,"DTPA 0.5 mg/ml, 24 hours",97.28%
same,Percentage of ^225Ac present in [^225Ac]Ac-DOTA-TATE,"DTPA 0.5 mg/ml, 48 hours",95.07%
same,Percentage of ^225Ac present in [^225Ac]Ac-DOTA-TATE,"DTPA 0.5 mg/ml, 72 hours",92.73%
same,Percentage of ^225Ac present in [^225Ac]Ac-DOTA-TATE,"DTPA 0.8 mg/ml, 0 hour",98.02%
same,Percentage of ^225Ac present in [^225Ac]Ac-DOTA-TATE,"DTPA 0.8 mg/ml, 24 hours",97.60%
same,Percentage of ^225Ac present in [^225Ac]Ac-DOTA-TATE,"DTPA 0.8 mg/ml, 48 hours",96.57%
same,Percentage of ^225Ac present in [^225Ac]Ac-DOTA-TATE,"DTPA 0.8 mg/ml, 72 hours",93.11%
same,Percentage of ^225Ac present in [^225Ac]Ac-DOTA-TATE,"DTPA 1.0 mg/ml, 0 hour",98.25%
same,Percentage of ^225Ac present in [^225Ac]Ac-DOTA-TATE,"DTPA 1.0 mg/ml, 24 hours",97.37%
same,Percentage of ^225Ac present in [^225Ac]Ac-DOTA-TATE,"DTPA 1.0 mg/ml, 48 hours",96.14%
same,Percentage of ^225Ac present in [^225Ac]Ac-DOTA-TATE,"DTPA 1.0 mg/ml, 72 hours",94.14%
